# Experimental data as given in paper PMC6147952, “Acylated-acyl carrier protein stabilizes the Pseudomonas aeruginosa WaaP lipopolysaccharide heptose kinase” (Scientific Reports, 2018).
# B1: E. coli acylated acyl-carrier protein (acyl-ACP) (natural protein, UniProt P0A6A8 1-78, looked up)
# chain: MSTIEERVKKIIGEQLGVKQEEVTNNASFVEDLGADSLDTVELVMALEEEFDTEIPDEEAEKITTVQAAIDYINGHQA
# modifications: phosphopantetheine on S36 carrying a C16:0 (palmitoyl) or C18:1 acyl chain (palmitoyl modelled in the crystal); selenomethionine
# notes: acyl carrier protein of E. coli, 77 amino acids as printed; In the in vitro synthesis experiment (functional row) the ACP was purified E. coli holo-ACP palmitoylated by V. harveyi AasS; Its construct is described only in the Supplementary Information; also called palmitoyl-ACP; source: endogenous, E. coli BL21(DE3)/pLysS, co-purified with WaaP-His
# Target: T1, C-terminal hexa-histidine tagged P. aeruginosa WaaP (1–264) (P. aeruginosa, UniProt Q9HUF7 1-264, selenomethionine substituted)
# T1 construct: WaaP, lipopolysaccharide core heptose kinase of Pseudomonas aeruginosa (strains derived from PAO1), residues 1-264; A loop (54-72) is disordered in the crystal; also called WaaP-His; LPS heptose kinase WaaP; source: E. coli BL21(DE3)/pLysS, pET21b-waaP, purified (IMAC, Mono-Q, CM-sepharose, Superdex75); not shown: His6, C-terminal, kept
# T1 sequence (looked up): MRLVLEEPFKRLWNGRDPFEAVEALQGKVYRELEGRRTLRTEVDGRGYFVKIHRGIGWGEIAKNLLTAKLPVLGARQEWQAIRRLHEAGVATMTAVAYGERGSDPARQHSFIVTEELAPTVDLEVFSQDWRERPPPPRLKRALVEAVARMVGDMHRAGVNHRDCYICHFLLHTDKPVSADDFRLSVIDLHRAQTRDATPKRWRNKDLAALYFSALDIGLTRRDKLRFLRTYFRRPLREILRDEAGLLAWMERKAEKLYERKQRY
# Assay: crystal structure; selenomethionine WaaP-His co-purified with E. coli acyl-ACP; hanging drops at 4 °C, 100 mM HEPES-NaOH pH 7.4, 5% Jeffamine M-600; 2.5 Å
# Settings: both partners purified
binder,measurement,value
B1,stoichiometry N,1
